# Assay results as given in paper PMC3099546.
# Substrate: CCCCC/C=C\C\C=C/C=C/C=C/[C@@H](SC[C@H](NC(=O)CC[C@H](N)C(=O)O)C(=O)NCC(=O)O)[C@@H](O)CCCC(=O)O
# Experiment: purified protein
protein,measurement,value
gamma-glutamyl leukotrienase (GGT5) (Homo sapiens) (protein) chain 1: SRHQAPCGPQAFAHAAVAADSKVCSDIGRAILQQQGSPVDATIAALVCTSVVNPQSMGLGGGVIFTIYNVTTGKVEVINARETVPASHAPSLLDQCAQALPLGTGAQWIGVPGELRGYAEAHRRHGRLPWAQLFQPTIALLRGGHVVAPVLSRFLHNSILRPSLQASTLRQLFFNGTEPLRPQDPLPWPALATTLETVATEGVEVFYTGRLGQMLVEDIAKEGSQLTLQDLAKFQPEVVDALEVPLGDYTLYSPPPPAGGAILSFILNVLRGFNFSTESMARPEGRVNVYHHLVETLKFAKGQRWRLGDPRSHPKLQNASRDLLGETLAQLIRQQIDGRGDHQLSHYSLAEAWGHGTG chain 2: TSHVSVLGEDGSAVAATSTINTPFGAMVYSPRTGIILNNELLDLCERCPRGSGTTPSPVSGDRVGGAPGRCWPPVPGERSPSSMVPSILINKAQGSKLVIGGAGGELIISAVAQAIMSKLWLGFDLRAAIAAPILHVNSKGCVEYEPNFSQEVQRGLQDRGQNQTQRPFFLNVVQAVSQEGACVYAVSDLRKSGEAAGY,Km,10.2 ± 0.1 µM
same,kcat,3.33 s⁻¹
same,kcat/Km,317000 M⁻¹ s⁻¹
